The supplement of paper PMC10567573

B1: ZNF207 (parent)
chain: FQPQPVQPQQGYIPPMAQPGLPPV
B2: WDFY1 (parent)
chain: LLIPKEDGVITASEDRTIRVWLKR

Variants of: B1
Experiment: protein stability index of a GFP-peptide fusion (GPS, HEK-293T) (PSI 1-6); higher = more stable
Conditions: c terminus: a fixed tail appended
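Note: lentivirally expressed fusions sorted by FACS into six bins by GFP to DsRed ratio, PSI derived from sequencing read proportions per bin multiplied by bin number.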

Protein stability index of substitutions, site by site:
F1: W 3.26, N 4.33, I 3.9, Q 4.18, A 4.29, G 4.37, E 4.36, T 3.5, S 4.38
Q2: Y 2.92, M 3.13, R 3.46, V 2.51, C 2.18, E 3.98
P23: S 3.19, H 2.77, Q 3.14, T 2.89, W 1.7
P5: A 3.22, D 3.18, H 3.15, T 2.62, I 2.63
P8: Q 2.95, R 2.61, F 2.88, H 2.89
I13: A 3.8, L 3.52, V 3.44, Q 3.59, M 2.99, H 3.54
Q7: F 2.72, G 2.78, S 3.5, M 3.21, I 3.29
P15: M 2.62, A 3.13, W 1.73, G 3.07, R 2.97, L 2.72, V 3.23
Q9: W 1.88, F 2.34, I 2.89, Y 2.32, H 3.24, R 3.26, N 2.72, T 3.01, E 3.45, M 2.88
V6: F 2.19, C 2.89, G 3.1, W 2.62, M 2.71, I 2.96
Q10: F 2.31, Y 2.64, A 2.84, E 3.1, D 3.54, P 3.07
G20: M 2.75
G11: A 3.03, P 2.74, H 3.21, R 3.21, T 2.6
P3: V 3.52, Y 3.13, D 3.62, S 3.73, G 3.8, F 2.49, H 3.8, T 3.95, M 3.38
M16: F 2.43, D 3.7, N 3.48, Y 2.82
P19: C 3.1, H 3.19, L 2.7, S 3.19, F 2.38
P22: H 2.83, K 3.4, L 2.99, N 2.74, D 3.06
Y12: E 3.77, L 3.81, N 3.77
P14: S 3.08, N 2.5, A 2.96, Y 2.65
L21: R 3.38, E 4.13, F 2.66, D 4.12, W 2.26
V24: H 2.71, Q 3.33, L 2.44, K 2.92, M 2.8, F 2.35
Q18: W 2.03, K 2.88, R 3.37
A17: P 3.04, W 1.93, F 2.5, G 2.98, S 3.86, I 3.17, E 3.42, N 3.59
Q4: N 3.43, D 3.01, S 3.21, I 2.31, L 2.88

Variants of: B2
Experiment: as above
Conditions: c terminus: a fixed tail appended

Protein stability index: each site, then its substitutions
D7: V 1.8, H 1.42, F 2.7, C 1.75, I 1.28, P 1.66, M 1.44, N 1.58
L2: G 2.37, M 2.27, Y 1.82, H 1.68, S 2.78, N 2.77, Q 3.1, V 2.69, C 2.5, T 2.08
V20: D 2.52, H 2.1, E 1.73, W 1.72, T 2.95, L 2.29, C 2.39, K 2.41
R16: K 1.74, I 1.43, N 3.22, G 1.89, M 2.19, H 1.6, T 1.65, A 1.92, P 2.37, D 2.6
L22: F 2.15, R 3.11, S 2.79, K 2.91, N 2.77
I3: A 3.62, L 2.76, G 2.97, T 2.91, D 3.09, M 1.95, N 3.77, R 2.71, F 2.04, W 1.87, H 2.45
R19: C 2.5, T 1.7, K 2.09, P 2.45, M 2.44, W 1.71, D 2.28, N 1.83, S 1.91, V 2.21
E14: W 1, I 2.76, F 2.37, Q 2.14, G 2.29, C 2.41, D 3.39, R 2.78
K23: M 1.76, S 2.1, I 2.1, Q 1.4, D 2.2, P 2.15, H 1.7, W 2.13, C 2.24, F 3.36, A 1.79
G8: T 2.55, K 1.99, Y 1.74, C 2.23, P 2.41, L 1.03, W 1.94, D 2.27
E6: N 2.58, T 1.77, V 1.42, R 1.63, M 2.65, L 3.18, Y 2.4, S 2.06, P 2.43
W21: E 3.37, I 3.04, D 3.87, F 3.61, T 2.46, R 2.77, V 3.07, C 3.44, H 3.17, N 3.33
T11: S 2.42, K 2.03, N 1.82, V 2.19, F 2.4, M 1.5, E 2.26, Q 1.72, W 1.72
P4: V 2.67, N 2.19, H 1.75, Q 1.5, R 2.46, L 1.79, S 2.54, C 2.28, T 1.89, D 2.82, A 2.13
A12: D 2.39, L 2.1, N 2.56, G 1.93, Q 2.18, P 2.76
K5: F 1.4, Q 1.57, R 1.44, A 2.13, Y 2.91, C 2.26
T17: H 3.16, A 2.74, W 2.16, G 1.39, F 2.12, C 2.1, V 1.71, S 1.8
V9: W 2.22, G 2.4, M 2.21, N 2.44, T 2.14, R 2.33, K 1.69, E 2.6, H 2.48, P 3.22, F 1.81
S13: D 2.53, I 2.57, G 2.42, K 2.06, A 1.56, Y 2.08
D15: E 1.66, Y 2.97, T 1.19, V 1.37
I18: Q 3.97, G 2.93, Y 2.04, E 2.52, P 3.15, M 1.76, L 2.29, K 1.74
R24: S 2.18, K 2.08, Y 2.07, P 2.07, A 1.84, M 1.53, H 2.03, N 2.34, D 3.09
I10: S 2.07, N 2.54, H 1.94, K 2.17, P 4.2, C 1.94, T 2.47
L1: Y 2.55, M 3.12, D 3.54, I 2.1, F 2.24, V 2.56, N 3.1, H 2.83, S 2.93
